Positions count from the first letter of the chain named. Several values for one entry are separate records, joined by “and”; a condition that tells them apart may be missing. Equal entries are not always repeated. Values belong to the binder of their own block, whether it stands above or below them.
Assays:
[1] = target: T1, Recombinant human glypican-3 (aa 1-559), His-tagged, R&D Systems (human, UniProt P51654 25-559); assay: SPR, as in the previous Examples
T1 construct: also called huGPC3; Hu GPC3-His
Procedure: (§1) For off-rate measurements, single 200 nM adnectin/AdxDC concentrations were injected using identical conditions. One 30s injection of 10 mM glycine pH 1.7 was used to remove bound adnectin and regenerate the GPC3 surfaces between assay cycles.
(§2) Rate constants kₐ (kₒₙ) and kd (koff) were derived from reference-subtracted sensorgrams fit to a 1:1 binding model in Biacore T100 Evaluation Software v2.0.4 (GE Healthcare). The affinity constant, KD was calculated from the ratio of rate constants kd/kₐ.
(§3) FITC Labeling: ADX_6077_F02 and non-binding control Adnectin were reduced with DTT or TCEP followed by G25 gel filtration chromatography or dialysis. Excess Fluorescein-5-maleimide reagent (Thermo Scientific) was then added and the mixture incubated at room temperature for approximately 2 hours followed by G25 gel filtration chromatography or extensive dialysis (3-4 buffer changes). The resulting degree of labeling was measured by absorbance following the manufacturer's instructions and/or by mass spectrometry. The binding affinities of FITC-labeled and PEGylated […] for human and murine GPC3 was evaluated as described in the previous Examples, and the results are summarized in Table 13.

[2] = target: T2, Recombinant murine glypican-3 (aa 25-557), R&D Systems (murine, UniProt Q8CFZ4 25-557); assay: SPR, as in the previous Examples
T2 construct: also called muGPC3; Mu GPC3-His
Procedure: as §1, §2, §3

[3] = target: T3, Human glypican-3, recombinant, construct not stated (human, UniProt P51654 25-559, limits assumed, biotin in the positional scanning (site not stated)); assay: ELISA, recombinant GPC3
T3 construct: also called recombinant GPC3; human GPC3

[4] = target: T1, Recombinant human glypican-3 (aa …); assay: SPR, Biacore T100, GPC3-His immobilised, 1:1 fit
Procedure: (§4) The binding affinities of the alkylated GPC3 DG mutant adnectins for human and murine GPC3 were further evaluated by Biacore T100 using HBS-P+ running buffer with direct immobilization of human and mouse GPC3 proteins [Hu (Fc 2,3) and Mu (Fc 4) GPC3-His (R&D Systems)] with a 200-1.56 nM series injected for 180s association, 600s dissociation.

[5] = target: T2, Recombinant murine glypican-3 (aa …); assay: SPR, Biacore T100, GPC3-His immobilised, 1:1 fit
Procedure: as §4

[6] = target: T1, Recombinant human glypican-3 (aa …); assay: SPR 1-point off-rate, alkylated mutant vs parent
[7] = target: T2, Recombinant murine glypican-3 (aa …); assay: SPR 1-point off-rate, alkylated mutant vs parent
[8] = target: T4, Human glypican-3 on cells (Huh7, Hep3B, H446, Hep3B xenograft tissue) (human, UniProt P51654 25-554); assay: flow cytometry on Huh7 cells
T4 construct: Endogenous GPC3 of human tumour cell lines; also called huGPC3 on cells; GPC3 receptor
Procedure: The binding of DG variants to huGPC3 in DG GPC3 AdxDCs mutants were evaluated by flow cytometry for binding to Huh7 carcinoma cells grown in DMEM media with 10% FBS. Cells were harvested using Versene, an EDTA cell dissociation solution from Lonza, Cat. #17-711E. Tumor cells (1E5 cells/reaction) were suspended in FACS buffer (PBS, 1% BSA, 0.05% Na Azide) and mixed with a serial dilution of AdxDC for one hour on ice. Cells were washed three times with FACS buffer, and bound AdxDC was detected with an in house anti-scaffold monoclonal Ab and PE-conjugated Antibody from (RnD Systems), cat #NL007, and read on a flow cytometer.

[9] = target: T4, Human glypican-3 on cells (Huh7, Hep3B, …); assay: flow cytometry on Hep3B cells, His Tag PE antibody
Procedure: GPC3 AdxDC were evaluated by flow cytometry for binding to human Hep3B hepatocellular carcinoma cells grown in MEM with 10% FBS, and H446 small cell lung carcinoma cells grown in RPMI with 10% FBS. Cells were harvested using Cellstripper, a non-enzymatic cell dissociation solution from Mediatch (Corning: Manassas, VA 20109), Cat. #25-056-CL. Tumor cells (25,000/reaction) were suspended in FACS buffer (PBS+5% FBS+0.01% NaN₃) and mixed with a serial dilution of AdxDC for 1 hour on ice. Cells were washed three times with FACS buffer, and bound AdxDC was detected with His Tag PE-conjugated Antibody from R&D System, cat #IC050P, and read on a flow cytometer.

T2 sequence (Q8CFZ4 25-557 limits assumed, form in doubt): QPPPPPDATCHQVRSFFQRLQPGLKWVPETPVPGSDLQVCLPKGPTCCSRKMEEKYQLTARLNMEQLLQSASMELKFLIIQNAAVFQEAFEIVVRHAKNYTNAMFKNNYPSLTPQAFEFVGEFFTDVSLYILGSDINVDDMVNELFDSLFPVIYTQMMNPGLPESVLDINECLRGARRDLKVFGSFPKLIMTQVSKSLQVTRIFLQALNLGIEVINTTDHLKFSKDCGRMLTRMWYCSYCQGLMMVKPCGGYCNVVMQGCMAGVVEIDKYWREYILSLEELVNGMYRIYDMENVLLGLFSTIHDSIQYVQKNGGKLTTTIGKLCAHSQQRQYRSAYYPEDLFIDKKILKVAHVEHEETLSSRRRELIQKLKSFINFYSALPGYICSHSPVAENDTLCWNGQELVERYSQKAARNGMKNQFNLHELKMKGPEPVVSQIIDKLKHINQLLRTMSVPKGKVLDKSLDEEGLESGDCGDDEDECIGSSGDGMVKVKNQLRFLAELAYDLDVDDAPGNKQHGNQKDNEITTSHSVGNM
T3 sequence (P51654 25-559 limits assumed): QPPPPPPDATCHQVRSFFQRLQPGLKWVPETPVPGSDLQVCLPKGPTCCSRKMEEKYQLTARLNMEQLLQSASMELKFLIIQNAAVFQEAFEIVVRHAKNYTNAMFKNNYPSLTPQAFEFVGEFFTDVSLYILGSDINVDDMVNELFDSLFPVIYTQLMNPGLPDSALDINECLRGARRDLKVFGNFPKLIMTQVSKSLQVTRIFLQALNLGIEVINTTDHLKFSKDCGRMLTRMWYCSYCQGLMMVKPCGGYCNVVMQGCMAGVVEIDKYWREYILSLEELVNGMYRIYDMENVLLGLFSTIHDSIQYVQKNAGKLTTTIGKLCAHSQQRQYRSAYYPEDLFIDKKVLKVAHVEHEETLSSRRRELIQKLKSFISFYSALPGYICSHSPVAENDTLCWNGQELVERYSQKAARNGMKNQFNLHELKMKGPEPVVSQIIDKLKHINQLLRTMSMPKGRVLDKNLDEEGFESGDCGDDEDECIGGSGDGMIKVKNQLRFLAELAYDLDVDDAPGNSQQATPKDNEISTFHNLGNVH
T4 sequence (P51654 25-554 limits assumed): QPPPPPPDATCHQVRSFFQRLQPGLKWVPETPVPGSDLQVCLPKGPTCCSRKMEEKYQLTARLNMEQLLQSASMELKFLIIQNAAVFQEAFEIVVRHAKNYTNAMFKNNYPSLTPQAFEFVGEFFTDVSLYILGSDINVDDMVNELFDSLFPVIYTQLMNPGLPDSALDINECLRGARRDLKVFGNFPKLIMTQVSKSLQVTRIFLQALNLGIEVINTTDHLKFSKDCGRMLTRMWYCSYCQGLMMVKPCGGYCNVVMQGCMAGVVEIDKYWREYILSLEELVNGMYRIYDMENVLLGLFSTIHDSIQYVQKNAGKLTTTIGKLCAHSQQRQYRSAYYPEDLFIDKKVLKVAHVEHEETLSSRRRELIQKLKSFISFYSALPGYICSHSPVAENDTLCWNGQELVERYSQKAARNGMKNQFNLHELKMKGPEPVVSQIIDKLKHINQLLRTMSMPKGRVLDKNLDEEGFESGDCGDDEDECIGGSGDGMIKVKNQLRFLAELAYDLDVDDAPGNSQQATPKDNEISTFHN
T1 sequence (P51654 other isoform, or with tags, fused parts or gaps): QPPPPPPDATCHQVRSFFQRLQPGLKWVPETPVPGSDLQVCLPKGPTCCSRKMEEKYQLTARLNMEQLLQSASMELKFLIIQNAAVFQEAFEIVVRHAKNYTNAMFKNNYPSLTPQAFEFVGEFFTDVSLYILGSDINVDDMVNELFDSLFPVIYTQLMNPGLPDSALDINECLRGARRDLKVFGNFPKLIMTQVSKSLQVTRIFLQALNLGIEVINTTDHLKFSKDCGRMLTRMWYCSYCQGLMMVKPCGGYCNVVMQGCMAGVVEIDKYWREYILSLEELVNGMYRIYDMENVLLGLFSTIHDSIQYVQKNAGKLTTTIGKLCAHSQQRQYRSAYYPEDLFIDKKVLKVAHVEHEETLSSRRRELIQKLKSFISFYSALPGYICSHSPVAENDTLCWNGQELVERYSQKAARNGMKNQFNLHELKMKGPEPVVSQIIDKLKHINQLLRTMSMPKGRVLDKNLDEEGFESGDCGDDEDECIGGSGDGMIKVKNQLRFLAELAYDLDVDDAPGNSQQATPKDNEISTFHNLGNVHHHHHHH

Kd [1]: 0.00611 µM
koff [1]: 0.000498 s⁻¹
kon [1]: 81500 M⁻¹ s⁻¹
Kd [2]: 0.00397 µM
koff [2]: 0.000446 s⁻¹
kon [2]: 112000 M⁻¹ s⁻¹
B1: 6077_F02-FITC (designed binder)
chain: MGVSDVPRDLEVVAATPTSLLISWSDDYHAHRYYRITYGETGGNSPVQEFTVPGEHVTATISGLKPGVDYTITVYAVTYDGEKAATDWSISINYRTPCHHHHHH
modifications: fluorescein-5-maleimide on the C-terminal cysteine
notes: also called FITC-labeled ADX_6077_F02

Kd [1]: 0.00819 µM and 0.0081 µM
koff [1]: 0.000602 s⁻¹ and 0.000607 s⁻¹
kon [1]: 73500 M⁻¹ s⁻¹ and 75000 M⁻¹ s⁻¹
Kd [2]: 0.00543 µM and 0.00526 µM
koff [2]: 0.000559 s⁻¹ and 0.000557 s⁻¹
kon [2]: 103000 M⁻¹ s⁻¹ and 106000 M⁻¹ s⁻¹
B2: 6077_F02.dPEG (designed binder)
chain: B1 chain
modifications: dPEG, site and size not stated
notes: The PEGylation is not described; also called PEGylated anti-GPC3 adnectin (dPEG)

ELISA OD [3]: 1.35 OD
B4: ADX_5273_C01 (designed binder)
chain: MGVSDVPRDLEVVAATPTSLLISWSDPYEEERYYRITYGETGGNSPVQEFTVPAFHTTATISGLKPGVDYTITVYAVTYKHKYAYYYPPISINYRTEIDKPSQ

ELISA OD [3]: 2.1 OD
B5: ADX_5273_D01 (designed binder)
chain: MGVSDVPRDLEVVAATPTSLLISWEPSYKDDRYYRITYGETGGNSPVQEFTVPSFHQTATISGLKPGVDYTITVYAVTYEPDEYYFYYPISINYRTEIDKPSQ

Fold affinity (KD) difference vs alkylated parent [4]: 3.9 fold
Kd [4]: 0.0219 µM
koff [4]: 0.00159 s⁻¹
kon [4]: 72600 M⁻¹ s⁻¹
Fold affinity (KD) difference vs alkylated parent [5]: 3.8 fold
Kd [5]: 0.015 µM
koff [5]: 0.0015 s⁻¹
kon [5]: 100000 M⁻¹ s⁻¹
huGPC3 koff (mut/par) [6]: 3.6 fold
muGPC3 koff (mut/par) [7]: 3.1 fold
huGPC3 on cells EC50 (mutant/parent) [8]: 1.7 fold
B11: ADX_6077_F02 DG→DL mutant, alkylated (designed binder)
chain: GVSDVPRDLEVVAATPTSLLISWSDDYHAHRYYRITYGETGGNSPVQEFTVPGEHVTATISGLKPGVDYTITVYAVTYDLEKAATDWSISINYRTPC
modifications: C-terminal cysteine alkylated
notes: also called P1-055671

huGPC3 koff (mut/par) [6]: 14 fold
muGPC3 koff (mut/par) [7]: 12 fold
B12: ADX_6077_F02 DG→GG mutant, alkylated (designed binder)
chain: B11 chain with D79G, L80G
modifications: C-terminal cysteine alkylated
notes: also called P1-055670

ELISA OD [3]: 1.73 OD
B17: ADX_4606_F06 (designed binder)
chain: MGVSDVPRDLEVVAATPTSLLISWNSGHSGQYYRITYGETGGNSPVQEFTVPRYGYTATISGLKPGVDYTITVYAVAHSEASAPISINYRTEIDKPSQ

Second part, the binder before the results:

B3: 6077_F02-PEG3.4 (designed binder)
chain: B1 chain
modifications: PEG3.4, site not stated
notes: The PEGylation is not described; also called PEGylated anti-GPC3 adnectin (PEG3.4)
Kd [1]: 0.00814 µM
koff [1]: 0.000584 s⁻¹
kon [1]: 71800 M⁻¹ s⁻¹
Kd [2]: 0.00512 µM
koff [2]: 0.000523 s⁻¹
kon [2]: 102000 M⁻¹ s⁻¹

B6: ADX_6077_F02 DG→SG mutant, alkylated (designed binder)
chain: VSDVPRDLEVVAATPTSLLISWSDDYHAHRYYRITYGETGGNSPVQEFTVPGEHVTATISGLKPGVDYTITVYAVTYSGEKAATDWSISINYRTPC
modifications: C-terminal cysteine alkylated
notes: also called P1-055668
Fold affinity (KD) difference vs alkylated parent [4]: 4.2 fold
Kd [4]: 0.0235 µM
koff [4]: 0.00221 s⁻¹
kon [4]: 94000 M⁻¹ s⁻¹
Fold affinity (KD) difference vs alkylated parent [5]: 4.1 fold
Kd [5]: 0.016 µM
koff [5]: 0.002 s⁻¹
kon [5]: 130000 M⁻¹ s⁻¹
huGPC3 koff (mut/par) [6]: 5.2 fold
muGPC3 koff (mut/par) [7]: 4.8 fold
huGPC3 on cells EC50 (mutant/parent) [8]: 1.1 fold

B7: ADX_6077_F02 DG→DA mutant, alkylated (designed binder)
chain: B11 chain with L80A
modifications: C-terminal cysteine alkylated
notes: also called P1-055660; PI-055660
Fold affinity (KD) difference vs alkylated parent [4]: 4.5 fold
Kd [4]: 0.0254 µM
koff [4]: 0.00183 s⁻¹
kon [4]: 72200 M⁻¹ s⁻¹
Fold affinity (KD) difference vs alkylated parent [5]: 4.3 fold
Kd [5]: 0.016 µM
koff [5]: 0.0017 s⁻¹
kon [5]: 100000 M⁻¹ s⁻¹
huGPC3 koff (mut/par) [6]: 3.9 fold
muGPC3 koff (mut/par) [7]: 3.7 fold
huGPC3 on cells EC50 (mutant/parent) [8]: 1.3 fold

B8: ADX_6077_F02 DG→DS mutant, alkylated (designed binder)
chain: B11 chain with L80S
modifications: C-terminal cysteine alkylated
notes: also called P1-055667
Fold affinity (KD) difference vs alkylated parent [4]: 4.2 fold
Kd [4]: 0.0233 µM
koff [4]: 0.00166 s⁻¹
kon [4]: 71600 M⁻¹ s⁻¹
Fold affinity (KD) difference vs alkylated parent [5]: 3.9 fold
Kd [5]: 0.015 µM
koff [5]: 0.0015 s⁻¹
kon [5]: 100000 M⁻¹ s⁻¹
huGPC3 koff (mut/par) [6]: 3.5 fold
muGPC3 koff (mut/par) [7]: 3.3 fold
huGPC3 on cells EC50 (mutant/parent) [8]: 1.4 fold

B9: ADX_6077_F02 DG→DV mutant, alkylated (designed binder)
chain: B11 chain with L80V
modifications: C-terminal cysteine alkylated
notes: also called P1-055672
Fold affinity (KD) difference vs alkylated parent [4]: 7.8 fold
Kd [4]: 0.0435 µM
koff [4]: 0.00309 s⁻¹
kon [4]: 71000 M⁻¹ s⁻¹
Fold affinity (KD) difference vs alkylated parent [5]: 7.8 fold
Kd [5]: 0.03 µM
koff [5]: 0.0025 s⁻¹
kon [5]: 85000 M⁻¹ s⁻¹
huGPC3 koff (mut/par) [6]: 7.9 fold
muGPC3 koff (mut/par) [7]: 7 fold

B10: ADX_6077_F02 DG→AG mutant, alkylated (designed binder)
chain: B11 chain with D79A, L80G
modifications: C-terminal cysteine alkylated
notes: also called P1-055669
Fold affinity (KD) difference vs alkylated parent [4]: 4.2 fold
Kd [4]: 0.0237 µM
koff [4]: 0.00243 s⁻¹
kon [4]: 103000 M⁻¹ s⁻¹
Fold affinity (KD) difference vs alkylated parent [5]: 4 fold
Kd [5]: 0.015 µM
koff [5]: 0.0021 s⁻¹
kon [5]: 140000 M⁻¹ s⁻¹
huGPC3 koff (mut/par) [6]: 5.9 fold
muGPC3 koff (mut/par) [7]: 5.5 fold
huGPC3 on cells EC50 (mutant/parent) [8]: 1.1 fold

B13: ADX_6077_F02 DG→EG mutant, alkylated (designed binder)
chain: B11 chain with D79E, L80G
modifications: C-terminal cysteine alkylated
notes: also called P1-055673
Fold affinity (KD) difference vs alkylated parent [4]: 5.3 fold
Kd [4]: 0.03 µM
koff [4]: 0.00229 s⁻¹
kon [4]: 76300 M⁻¹ s⁻¹
Fold affinity (KD) difference vs alkylated parent [5]: 5.1 fold
Kd [5]: 0.019 µM
koff [5]: 0.0021 s⁻¹
kon [5]: 110000 M⁻¹ s⁻¹
huGPC3 koff (mut/par) [6]: 5.4 fold
muGPC3 koff (mut/par) [7]: 5.1 fold
huGPC3 on cells EC50 (mutant/parent) [8]: 1.6 fold

B14: ADX_4578_B06 (designed binder)
chain: MGVSDVPRDLEVVAATPTSLLISWFPDRYVYYITYGETGGNSPVQEFTVEGHKQTAYISGLKPGVDYTITVYAIYYYPDDFQGYPQPISINYRTEGSGS
ELISA OD [3]: 0.17 OD

B15: ADX_4578_H08 (designed binder)
chain: MGVSDVPRDLEVVAATPTSLLISWSGYDYGDSYYRITYGETGGNSPVQEFTVPDGSNTATISGLKPGVDYTITVYAVEAYGKGYTRYTPISINYRTEIDKPSQ
ELISA OD [3]: 1.02 OD

B16: ADX_4578_F03 (designed binder)
chain: MGVSDVPRDLEVVAATPTSLLISWHPPHPNIVSYHIYYGETGGNSPVQEFTVEGSKSTAKISGLKPGVDYTITVYAVAPEIEKYYQIWINYRTEGSGS
ELISA OD [3]: 0.6 OD

B18: ADX_5274_E01 (designed binder)
chain: MGVSDVPRDLEVVAATPTSLLISWSGDYHPHRYYRITYGETGGNSPVQEFTVPGEHETATISGLKPGVDYTITVYAVTYDGEKADKYPPISINYRTEIDKPSQ
ELISA OD [3]: 2.37 OD

B19: ADX_6093_A01-961(DAR2) (designed binder)
10Fn3 domain: MGVSDVPRDLEVVAATPTSLLISWDAPAVTVRYYRITYGETGGNSPVQEFTVPGSKSTATISGLKPGVDYTITVYAVTGRGESPASSKPISINYRTPCPPPPPCHHHHHH
modifications: the two C-terminal cysteines each carry the tubulysin analog-linker of formula (IV) (Drug/linker (2x), DAR2)
notes: It is the DAR2 counterpart of m12
binding result [9]: no binding (tested: about 30 nM)
